The text below walks through data of patent publication US20160122389A1 (PHARIS BIOTEC, published 2016).

One may read the Ki as a dissociation constant, usually derived from enzyme kinetics or from competition with a known ligand.

Sequences and labels used below:
B1: peptide of SEQ ID NO 16 (408-423) (peptide)
peptide: LVRYTKKVPQVSTPTL
notes: Chemically synthesized fragment of human serum albumin (HSA)
B2: 408-418 (peptide)
peptide: LVRYTKKVPQV
B3: 408-422 (peptide)
peptide: LVRYTKKVPQVSTPT
B4: 408-421 (peptide)
peptide: LVRYTKKVPQVSTP
B5: 408I-419 (peptide)
peptide: IVRYTKKVPQVS
B6: 408I-419 WSC03 (peptide)
peptide: IVRWSKKVCQVS
B7: 408I-419 WSC01 x2 (peptide)
peptide: IVRWSKKVPQCS
modifications: also: homodimer, disulfide between Cys of the two monomers
B8: 408I-419 WC01_x2 (peptide)
peptide: IVRWTKKVPQVC
modifications: also: homodimer, disulfide between Cys of the two monomers
B9: 408-415-V409A (peptide)
peptide: LARYTKKV
B10: 408I-418 SC (peptide)
peptide: IVRYSKKVPQC
B11: 408-419 (peptide)
peptide: LVRYTKKVPQVS
B12: 408I-419 WSC02 (peptide)
peptide: IVRWSKKVPCVS
B13: 408I-419 WSC02 x2 (peptide)
peptide: IVRWSKKVPCVS
modifications: also: homodimer, disulfide between Cys10 of two monomers
B14: 408-415-T412A (peptide)
peptide: LVRYAKKV
B15: 408I-419 WSC01 (peptide)
peptide: IVRWSKKVPQCS
B16: 408-415 (peptide)
peptide: LVRYTKKV
B17: 408I-419 Y411W (peptide)
peptide: IVRWTKKVPQVS
B18: 408I-419 WC03 x2 (peptide)
peptide: IVRWCKKVPQVS
modifications: also: homodimer, disulfide between Cys of the two monomers
B19: 408I-419 V418C (peptide)
peptide: IVRYTKKVPQCS
B20: 408I-419 Y411F (peptide)
peptide: IVRFTKKVPQVS
B21: 408I-419 WC02 x2 (peptide)
peptide: IVRWTCKVPQVS
modifications: also: homodimer, disulfide between Cys of the two monomers
B22: 408I-419 K414C (peptide)
peptide: IVRYTKCVPQVS
B23: 408I-419 R410H (peptide)
peptide: IVHYTKKVPQVS
B24: 408I-419 T412S (peptide)
peptide: IVRYSKKVPQVS
B25: 408I-419 K414C x2 (peptide)
peptide: IVRYTKCVPQVS
modifications: also: homodimer, disulfide between Cys of the two monomers
B26: 408I-419 Y411S (peptide)
peptide: IVRSTKKVPQVS
B27: 408I-419 V418C x2 (peptide)
peptide: IVRYTKKVPQCS
modifications: also: homodimer, disulfide between Cys of the two monomers
B28: 408-420 (peptide)
peptide: LVRYTKKVPQVST
B29: 408I-418 SC x2 (peptide)
peptide: IVRYSKKVPQC
modifications: also: homodimer, disulfide between Cys of the two monomers
B30: 408I-419 WC01 (peptide)
peptide: IVRWTKKVPQVC
B31: 408I-419 WC03 (peptide)
peptide: IVRWCKKVPQVS
B32: 407-419 (peptide)
peptide: LLVRYTKKVPQVS
B33: 408-417 (peptide)
peptide: LVRYTKKVPQ
B34: 408I-419 R410K (peptide)
peptide: IVKYTKKVPQVS
B35: 408I-419 WC02 (peptide)
peptide: IVRWTCKVPQVS

No end group written: not given here. A value given as a limit tells only on which side of the number the result lay.

T1 sequence (P61073 whole entry, the tested form may be a part): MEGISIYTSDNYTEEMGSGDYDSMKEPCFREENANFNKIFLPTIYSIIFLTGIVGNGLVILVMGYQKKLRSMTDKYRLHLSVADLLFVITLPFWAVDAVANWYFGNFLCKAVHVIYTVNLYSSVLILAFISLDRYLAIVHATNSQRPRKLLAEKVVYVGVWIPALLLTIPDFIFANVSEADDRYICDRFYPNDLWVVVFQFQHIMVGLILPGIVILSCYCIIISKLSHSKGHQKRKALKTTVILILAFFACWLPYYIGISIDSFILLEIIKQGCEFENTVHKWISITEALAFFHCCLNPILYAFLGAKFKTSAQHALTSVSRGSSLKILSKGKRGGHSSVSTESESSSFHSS

One assay concerns the target T1, eGFP-CXCR4 (UniProt P61073 1-352).
T1 construct: whole, on cells; not shown: EGFP part of the fusion
The experiment in a line: competition with 100 nM CXCL12-TexasRed on cells expressing eGFP-CXCR4, real-time fluorescence. The method, then:
Experiments were performed using cells stably expressing eGFP-CXCR4, suspended in HEPES-bovine serum albumin buffer (10 mM HEPES, 137.5 mM NaCl, 1.25 mM MgCl₂, 1.25 mM CaCl₂, 6 mM KCl, 10 mM glucose, 0.4 mM NaH₂PO₄, 0.1% bovine serum albumin (w/v), pH 7.4) (typically at 10⁶ cells/mL). Time-based recordings of the fluorescence emitted at 510 nm (excitation at 470 nm) were performed at 21° C. using a spectrofluorimeter and sampled every 0.3 s. Fluorescence binding measurements were initiated by adding at 30 s 100 nM of CXCL12-TR to the 1 mL cell suspension. For competition experiments, EGFP-CXCR4 expressing cells were preincubated for 10 min in the absence or presence of various concentrations of unlabelled drugs. Then, CXCL12-TR (100 nM) was added and fluorescence was recorded until equilibrium was reached (300 s). Data were analyzed using Kaleidagraph 3.08 software (Synergy Software, Reading, Pa., USA).
B1: the Ki stood at 3 µM.

A further assay deals with T2, CXC chemokine receptor 4 (CXCR4) (human, UniProt P61073 1-352). The experiment in a line: cell-based or functional assay.
T2 sequence (P61073 whole entry): as the sequence (P61073 whole entry, the tested form may be a part) above
On to B2, for which the “IC50 (µM), blocking of X4 tropic HIV-1 NL4-3 infection” value (shortened to “IC50 (µM), blocking”) is 26.8 µM. Same read-out and setting: for B3 the value was 13.4 µM; for B4, 14 µM; for B5, 2.48 µM. Regarding B6, the “IC50 (µM), blocking” value stood at 1.51 µM.

For B7, the “IC50 (µM), blocking” value worked out at 0.18 µM. Same read-out and setting: for B8 the value was 0.4 µM. Still for that read-out and setting: for B9 the value was 32.9 µM; for B10, 2.94 µM; for B11, 5.49 µM. Still for that read-out and setting: for B12 the value was 0.31 µM.

In the case of B13, the “IC50 (µM), blocking” value came to 0.12 µM. The same measure, in the same setting: for B14 the value was 11.2 µM; for B15, 0.87 µM; for B16, 25.7 µM. On the same count and under the same terms, for B17 the value was 1.54 µM. The same measure, in the same setting: for B18 the value was 0.6 µM. With B19, the “IC50 (µM), blocking” value turned out to be 3.69 µM. Same read-out and setting: as for B20, the figure is 3.89 µM; as for B21, 0.32 µM; as for B22, 5.87 µM. B1: the “IC50 (µM), blocking” value was 8.63 µM. Still for that read-out and setting: as for B23, the figure is above 100 µM. The same measure, in the same setting: as for B24, the figure is 2.09 µM; as for B25, 1.05 µM; as for B26, above 100 µM. Same read-out and setting: for B27 the value was 0.46 µM.

Regarding B28, the “IC50 (µM), blocking” value worked out at 15.3 µM.

In the case of B29, the “IC50 (µM), blocking” value is 0.39 µM. For B30, the “IC50 (µM), blocking” value stood at 1.65 µM. Same read-out and setting: as for B31, the figure is 1.82 µM; as for B32, 11.1 µM. On the same count and under the same terms, as for B33, the figure is 19.8 µM; as for B34, above 100 µM; as for B35, 2.1 µM.

In a further assay the target is T2, CXC chemokine receptor 4 (CXCR4). The experiment in a line: cell-based or functional assay. The source holds these as a separate data set.
In the case of B1, the “mean 50% inhibitory concentration (IC50) of infection by X4 HIV-1 strains” value came out at 15.8 mg/L.
